For experiment [1], the target named is aRSV-Fab (Fab fragment of Palivizumab, Synagis). Description: SPR Biacore 3000, Fab on CM5 chip, peptide analyte, 1:1 fit. On the technique in general: Surface plasmon resonance follows binding to a sensor surface in real time, without labels.
Experiment [2] addresses aIgE-Fab (Fab fragment of Omalizumab, Xolair). The description is as above.
For experiment [3], the target named is aTNFa-Fab (Fab fragment of Infliximab, Remicade). The description is as above.
For experiment [4] the target is unchanged. The experiment can be described thus: dynamic binding capacity on a 1 mL-gel column, 1 mg/mL aTNFa-Fab at […], 55% breakthrough.

These results are taken from US20170327535A1.

Regarding “LC2t-Wild.1d (C2 domain of PpL3316 with deletion of the N-terminal region)”, the Ka in experiment [1] was 9.2e+06 M⁻¹.
Take “LB3t-Wild.1d (B3 domain of PpL312 with deletion of the N-terminal region)”: the Ka in experiment [2] is 3.77e+08 M⁻¹.
Take “LC1t-Wild.1d (C1 domain of PpL3316 with deletion of the N-terminal region)”: the Ka in experiment [2] was found to be 2.71e+07 M⁻¹; in experiment [1] it was 2.3e+06 M⁻¹.
In experiment [1], “LC3t-Wild.1d (C3 domain of PpL3316 with deletion of the N-terminal region)” registered a Ka of 8.7e+06 M⁻¹.
With “LB4t-Wild.1d (B4 domain of PpL312 with deletion of the N-terminal region)”, the Ka in experiment [3] amounted to 300000 M⁻¹; in experiment [2], 1.08e+09 M⁻¹; in experiment [1], 1.38e+07 M⁻¹.
In the case of “LB5t-Wild.1d (B5 domain of Protein L of Peptostreptococcus magnus 312 strain with deletion of the N-terminal region, single domain)”, the results for the Ka in experiment [3] and in experiment [2] were 700000 M⁻¹ and 4.43e+08 M⁻¹, respectively.
Substance “commercially available Protein L carrier (HiTrap Protein L, GE Healthcare Bioscience)” had a 55% DBC in experiment [4] of 4.8 mg/mL/gel.
As to “LB2t-Wild.1d (B2 domain of PpL312 with deletion of the N-terminal region)”, in experiment [1], the Ka worked out at 1e+06 M⁻¹.
As for “LC4t-Wild.1d (C4 domain of PpL3316 with deletion of the N-terminal region)”, the Ka in experiment [2] was found to be 4.18e+09 M⁻¹; in experiment [1], 1.93e+07 M⁻¹.
Take “LB1t-Wild.1d (B1 domain of PpL312 with deletion of the N-terminal region)”: the Ka in experiment [3] was determined as 30000 M⁻¹; in experiment [2], 1.12e+09 M⁻¹; in experiment [1], 4.4e+06 M⁻¹.
